{
  "source": "patent US7115556B2",
  "about": "“Use of anti-prolactin agents to treat proliferative conditions” (Greenville Hospital System, priority 1998, dated 2006)",
  "molecules": {"B1": {"name": "hPRL-G129R: variant of human prolactin having a substitution of the glycine at position 129 with an arginine residue; prolactin receptor antagonist (protein)", "chain": "LPICPGGAARCQVTLRDLFDRAVVLSHYIHNLSSEMFSEFDKRYTHGRGFITKAINSCHTSSLATPEDKEQAQQMNQKDFLSLIVSILRSWNEPLYHLVTEVRGMQEAPEAILSKAVEIEEQTKRLLERMELIVSQVHPETKENEIYPVWSGLPSLQMADEESRLSAYYNLLHCLRRDSHKIDNYLKLLKCRIIHNNNC"}},
  "key": {"[1]": {"tested_on": "tyrosine phosphorylation of STAT proteins in T47-D cells", "experiment": "Tyrosine phosphorylation of STAT proteins in T47-D cells (Example 10)", "type": "cell-based, human", "protocol": "Tyrosine Phosphorylation of STAT Proteins in T47-D cells. This assay is designed to examine the effects of HPRL and hPRL-G129R on signal transduction using T47-D cells as model target cells. Briefly, T47-D cells were plated in 12-well plates. After pre-incubation in serum-free medium for 2–3 hours, cells were exposed to various concentrations of hPRL or hPRL-G129R or a combination of hPRL and hPRL-G129R in serum-free medium. The cells were incubated for 15 min at 37° C., washed once with PBS, and lysed in 200 μl lysis buffer (50 mM Tris-HCl, pH 6.8, 1% SDS, 1% β-mecaptoethanol, 0.1M DTT, 5% sucrose, 100 μM sodium orthovanadate, and 0.6% bromophenol blue). Thirty microliters of cell lysate are then subjected to 4–12.5% SDS-PAGE using the Bio-Rad Protein II system. After electrophoresis, the gels were transferred to a Hybond-ECL membrane (Amersham, Ill.) at 100 volts constant voltage for 2 hrs. Blots were incubated in a blocking solution of 4% BSA (Boehringer Mannheim, Ind.) in rinsing buffer (10 mM Tris-HCl pH 7.5, 75 mM NaCl, 0.1% Tween 20, 1 mM EDTA) for 2 hrs and subsequently washed twice with rinsing buffer for 15 min. Blots were incubated with horseradish peroxidase (HRP)-conjugated antiphosphotyrosine antibody PY20 (Amersham, Ill.) at a concentration of 0.1 μg/ml in the blocking solution for 1 hr. […] Blots were then exposed to X-ray film and developed using standard procedures (Kodak, Rochester, N.Y.)."}, "[2]": {"tested_on": "T47D human breast cancer cells", "experiment": "Cell proliferation assay, cell counting", "type": "cell-based", "conditions": "FIGS. 5A-B", "protocol": "Cell proliferation assays. hPRLA was tested for its ability to inhibit breast cancer cell proliferation in tissue culture. The human breast cancer cells were grown in corresponding culture media according to ATCC recommendations. Cells were maintained at 37° C. in a humidified atmosphere of 5% CO2 in air. The assay conditions were essentially as described by Ginsburg and Vonderharr (1995, Cancer Res. 55:2591–2595). For individual growth experiments, cells were plated in 12 well culture plates at a density of approximately 2×10^4 /ml, 1 ml/ well. Cells were then allowed to attach for one day (T-47D, MCF-7, HTB19, and HTB20 cells, except for HTB 123, which is a suspension cells), then the overlying media was removed and changed to serum-free conditions with media containing ITS^+ (insulin-transferring-selenium-BSA-linoleic acid culture supplement; Collaborative Research Bedford, Mass.). Varying concentrations of hPRL alone or in combination with hPRLA were introduced. After an additional three days in culture, cells were harvested after brief trypsinization and counted in a cell counter."}, "[3]": {"tested_on": "T47-D human breast cancer cells", "experiment": "96 well cell proliferation assay with conditioned media (MTS-PMS)", "type": "cell-based", "protocol": "HPRLG129R Conditioned Media. The assay conditions were modified from that described by Ginsburg and Vonderharr (1995, Cancer Res. 55:2591–2595). T47-D cells were trypsinized and passed into 96 well plates in RPMI-1640 media containing 1% DCC-FCS in a volume of 100 μl/well. The optimal cell number/well for each cell line was pre-determined after titration assay. For T47-D cells, 15,000 cells/well were plated. The cells were allowed to settle and adhere overnight (12–18 hours) and subsequently various concentrations of either hPRL, hRPL-G129R, E2 or 4-OH-Tamoxifen in a total volume of 100 μl of culture media were added. Purified hPRL (kindly provided by Dr. Parlow, National Hormone & Pituitary Program, NIH) was used as a positive control for hPRL produced from stable L cells. Cells were incubated for an additional 96 hours at 37° C. in a humidified 5% CO2 incubator. After incubation, MTS-PMS solution (Cell Titer 96 Aqueous kit, Promega Corp.) was added to each well, following the manufacturer's instructions. Plates were read at 490 nm using a BIO-RAD benchmark microplate reader. The experiments were carried out in triplicates and repeated three to six times for each cell line."}, "MCF-7 cells": {"tested_on": "MCF-7 cells", "experiment": "Co-culture with L-G129R cells, MCF-7", "type": "cell-based, human", "conditions": "MCF-7 co-cultured with L-G129R cells; more hPRL-G129R required than for T47-D", "text": "The co-culture experimental set-up provides a sustained presence of biologically active hPRL-G129R, thereby resulting in a maximal response in these tumor cells."}, "rat Nb2 T lymphoma cells": {"tested_on": "rat Nb2 T lymphoma cells", "conditions": "Goffin et al., 1994; cited from earlier work"}, "hPRLR": {"biological_target": "T1, hPRLR (Homo sapiens, UniProt P16471)", "T1 sequence (P16471 25-622)": "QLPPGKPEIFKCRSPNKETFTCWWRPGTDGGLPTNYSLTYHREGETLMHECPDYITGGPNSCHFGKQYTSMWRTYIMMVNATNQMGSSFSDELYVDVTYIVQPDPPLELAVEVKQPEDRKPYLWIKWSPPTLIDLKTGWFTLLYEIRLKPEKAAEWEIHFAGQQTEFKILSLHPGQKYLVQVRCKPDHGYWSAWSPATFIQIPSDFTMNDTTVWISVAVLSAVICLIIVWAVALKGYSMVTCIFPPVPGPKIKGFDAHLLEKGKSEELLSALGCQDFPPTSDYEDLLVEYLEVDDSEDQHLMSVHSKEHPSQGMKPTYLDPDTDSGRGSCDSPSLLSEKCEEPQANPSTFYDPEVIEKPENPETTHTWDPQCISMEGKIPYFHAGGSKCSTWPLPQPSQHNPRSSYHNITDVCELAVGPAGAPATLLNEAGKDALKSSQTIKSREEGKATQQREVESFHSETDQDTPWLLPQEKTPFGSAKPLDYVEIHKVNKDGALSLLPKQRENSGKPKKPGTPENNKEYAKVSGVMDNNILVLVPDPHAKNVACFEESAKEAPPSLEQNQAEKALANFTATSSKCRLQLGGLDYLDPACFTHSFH", "conditions": "Goffin et al., 1996; cited from earlier work"}},
  "data": [
    {"molecule": "B1", "values": [
      {"measurement": "inhibition of STAT protein phosphorylation induced by hPRL", "setting": "[1]; 5:1 ratio (500 ng/ml hPRL-G129R, 100 ng/ml hPRL)", "value": "completely inhibited"},
      {"measurement": "stimulating STAT protein phosphorylation", "setting": "[1]; T47-D cells, hPRL-G129R alone (100 ng/ml, FIG. 13)", "value": "not active"},
      {"measurement": "block of signal transduction (STAT phosphorylation) induced by hPRL", "setting": "[1]; added together with hPRL", "value": "block the signal transduction induced by hPRL in a dose dependent manner"},
      {"measurement": "proliferation of T47D cells relative to untreated control cultures", "setting": "[2]", "value": "comparable inhibitory effect"},
      {"measurement": "inhibitory effect of combination", "setting": "[3]; 100 nM 4-OH-Tamoxifen in the presence of 100 ng/ml hPRL-G129R", "value": "approximately 32 % of control"},
      {"measurement": "effect on hPRL induced cell proliferation", "setting": "[3]; 1:1 molar ratio hPRL-G129R:hPRL", "value": "stop the stimulatory effect of hPRL"},
      {"measurement": "effect on hPRL induced cell proliferation", "setting": "[3]; 2:1 molar ratio hPRL-G129R:hPRL", "value": "inhibited cell proliferation"},
      {"measurement": "maximum inhibition by a single dose", "setting": "[3]; 4-OH-Tamoxifen at 500 nM, T47-D", "value": "25 % of control"},
      {"measurement": "inhibitory potency compared with maximal 500 nM dose of 4-OH-Tamoxifen", "setting": "[3]; hPRL-G129R 150 ng/ml", "value": "more potent"},
      {"measurement": "inhibitory effects of combination compared to maximum dose of either agent", "setting": "[3]; hPRL-G129R applied together with 4-OH-Tamoxifen", "value": "doubled"},
      {"measurement": "effect on T47-D proliferation, dose response", "setting": "[3]; single dose, four-day incubation", "value": "dose dependent inhibitory effects"},
      {"measurement": "inhibition of cell proliferation in co-culture", "setting": "MCF-7 cells", "value": "Complete inhibition"},
      {"measurement": "activity in Nb2 proliferation assay", "setting": "rat Nb2 T lymphoma cells", "value": "weak agonist"},
      {"measurement": "effect in PRLR reporter gene assay", "setting": "hPRLR", "value": "antagonist effect"}
    ]}
  ]
}
